Read-outs that look alike come from different tables or passages of the source.
Experiments:
human CD11a [1] = target: T1, human CD11a (human, UniProt P20701 26-1170); assay: FACScan, Jurkat cells
T1 construct: whole, on cells; On cells it stands paired with CD18 as LFA-1; also called alpha subunit of LFA-1; LFA-1 (CD11a/CD18)

human CD11a [2] = target: T1, human CD11a; assay: FACScan, Jurkat cells; remark: listed apart in the source
rhesus CD11a [3] = target: T2, rhesus CD11a (rhesus, UniProt H9Z8N3 26-1169); assay: binding to rhesus peripheral blood lymphocytes
T2 construct: whole, on cells; also called rhCD11a
T2 sequence: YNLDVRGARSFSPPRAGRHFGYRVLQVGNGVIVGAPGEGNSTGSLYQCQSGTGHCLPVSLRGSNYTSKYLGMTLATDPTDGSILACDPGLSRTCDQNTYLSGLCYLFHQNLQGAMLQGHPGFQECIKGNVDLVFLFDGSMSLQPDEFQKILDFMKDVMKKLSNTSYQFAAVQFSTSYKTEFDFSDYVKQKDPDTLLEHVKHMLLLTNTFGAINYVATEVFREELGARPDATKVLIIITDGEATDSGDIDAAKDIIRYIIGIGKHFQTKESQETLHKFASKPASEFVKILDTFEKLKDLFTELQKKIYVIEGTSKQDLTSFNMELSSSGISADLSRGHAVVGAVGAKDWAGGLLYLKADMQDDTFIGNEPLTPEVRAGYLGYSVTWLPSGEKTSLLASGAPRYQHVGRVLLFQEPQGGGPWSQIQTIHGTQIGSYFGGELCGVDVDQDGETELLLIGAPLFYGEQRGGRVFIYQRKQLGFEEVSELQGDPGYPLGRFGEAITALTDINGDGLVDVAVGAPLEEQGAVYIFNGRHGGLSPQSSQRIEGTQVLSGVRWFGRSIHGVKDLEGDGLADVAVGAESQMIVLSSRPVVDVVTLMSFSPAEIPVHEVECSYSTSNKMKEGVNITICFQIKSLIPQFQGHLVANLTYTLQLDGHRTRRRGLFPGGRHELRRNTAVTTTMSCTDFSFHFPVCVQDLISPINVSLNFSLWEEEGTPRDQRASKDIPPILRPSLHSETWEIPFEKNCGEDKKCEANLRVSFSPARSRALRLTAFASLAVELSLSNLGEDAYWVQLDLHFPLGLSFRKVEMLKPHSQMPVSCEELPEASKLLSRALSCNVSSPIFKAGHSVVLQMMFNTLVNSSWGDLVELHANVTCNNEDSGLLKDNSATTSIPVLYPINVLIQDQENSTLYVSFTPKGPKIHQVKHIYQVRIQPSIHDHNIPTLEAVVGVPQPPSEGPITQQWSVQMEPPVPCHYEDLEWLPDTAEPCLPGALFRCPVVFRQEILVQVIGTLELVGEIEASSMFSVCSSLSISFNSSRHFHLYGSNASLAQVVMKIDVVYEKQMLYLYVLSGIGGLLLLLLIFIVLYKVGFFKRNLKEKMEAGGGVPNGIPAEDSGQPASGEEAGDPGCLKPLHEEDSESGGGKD

rhesus CD11a [4] = target: T2, rhesus CD11a; assay: binding to rhesus peripheral blood lymphocytes; remark: listed apart in the source
rhesus CD11a [5] = target: T2, rhesus CD11a; assay: cell binding EC50 on rhesus CD11a against HuIgG1 on human CD11a
human CD11a [6] = target: T1, human CD11a; assay: cell-based or functional assay
rhesus CD11a [7] = target: T2, rhesus CD11a; assay: cell binding EC50, rhesus against human CD11a
human CD11a [8] = target: T1, human CD11a; assay: saturation binding, human lymphocytes, donor 1, Kd(app)
human CD11a [9] = target: T1, human CD11a; assay: saturation binding, human lymphocytes, donor 2, Kd(app)
human CD11a [10] = target: T1, human CD11a; assay: saturation binding of 125I-antibody to human mononuclear cells, Kd(app)

B1: humanized MHM24 F(ab)-1 (Fab, V domains shown)
VH: EVQLVESGGGLVQPGGSLRLSCAASGFSFTGHWMNWVRQAPGKGLEWVGMIHPSDSETRYADSVKGRFTISVDNSKNTLYLQMNSLRAEDTAVYYCARGIYFYGTTYFDYWGQGTLVTVSS
VL: DIQMTQSPSSLSASVGDRVTITCRASKTISKYLAWYQQKPGKAPKLLIYSGSSLESGVPSRFSGSGSGTDFTLTISSLQPEDFATYYCQQHNEYPLTFGQGTKVEIK
notes: F(ab) from E. coli (VH-CH1 and kappa light chain)
- binding result (human CD11a [1]): no binding

B2: humanized MHM24 F(ab)-7 (Fab, V domains shown)
VH: EVQLVESGGGLVQPGGSLRLSCAASGYSFTGHWMNWVRQAPGKGLEWVGMIHPSDSETRYNQKFKDRFTISVDKSSSTLYLQMNSLRAEDTAVYYCARGIYFYGTTYFDYWGQGTLVTVSS
VL: DIQMTQSPSSLSASVGDRVTITCRASKTISKYLAWYQQKPGKAPKLLIYSGSTLQSGVPSRFSGSGSGTDFTLTISSLQPEDFATYYCQQHNEYPLTFGQGTKVEIK
- fold improvement in binding over F(ab)-6 (human CD11a [2]): 3 fold
- EC50 F(ab)/EC50 F(ab)-2 (human CD11a [1]): 0.004 ratio

B3: humanized MHM24 F(ab)-6 (Fab, V domains shown)
VH: EVQLVESGGGLVQPGGSLRLSCAASGFSFTGHWMNWVRQAPGKGLEWVGMIHPSDSETRYNQKFKDRFTISVDKSSSTLYLQMNSLRAEDTAVYYCARGIYFYGTTYFDYWGQGTLVTVSS
VL: DIQMTQSPSSLSASVGDRVTITCRASKTISKYLAWYQQKPGKAPKLLIYSGSTLQSGVPSRFSGSGSGTDFTLTISSLQPEDFATYYCQQHNEYPLTFGQGTKVEIK
- fold improvement in binding over F(ab)-5 (human CD11a [2]): 4 fold
- EC50 F(ab)/EC50 F(ab)-2 (human CD11a [1]): 0.012 ratio

B4: H2C11 variant IgG1 (antibody, V domains shown)
VH: EVQLVESGGGLVQPGGSLRLSCAASGYSFTGHWMNWVRQAPGKGLEWVGMIAPASSNTRYNQKFKDRFTISVDKSKNTLYLQMNSLRAEDTAVYYCARGIYFYGTTYFDYWGQGTLVTVSS
VL: DIQMTQSPSSLSASVGDRVTITCRASKTISKYLAWYQQKPGKAPKLLIYSGSTLQSGVPSRFSGSGSGTDFTLTISSLQPEDFATYYCQQHNEYPLTFGQGTKVEIK
notes: HuIgG1 variant, human IgG1
- EC50 (rhesus CD11a [3]): 0.11 nM
- fold improvement over the EC50 of HuIgG1 for rhesus CD11a (rhesus CD11a [3]): 240 to 415 fold
- Var.EC50/HuIgG1 EC50 (rhesus CD11a [4]): 0.002 ratio
- fold weaker than the EC50 of HuIgG1 for human CD11a (rhesus CD11a [5]): 3 to 5 fold

B5: humanized MHM24 F(ab)-2 (Fab, V domains shown)
VH: EVQLVESGGGLVQPGGSLRLSCAASGFSFTGHWMNWVRQAPGKGLEWVGMIHPSDSETRYNQKFKDRFTISVDNSKNTLYLQMNSLRAEDTAVYYCARGIYFYGTTYFDYWGQGTLVTVSS
VL: DIQMTQSPSSLSASVGDRVTITCRASKTISKYLAWYQQKPGKAPKLLIYSGSSLESGVPSRFSGSGSGTDFTLTISSLQPEDFATYYCQQHNEYPLTFGQGTKVEIK
notes: F(ab) from E. coli
- fold weaker EC50 than chimeric IgG1 (human CD11a [2]): 148 fold
- EC50 (human CD11a [1]): 0.771 mg/L
- EC50 F(ab)/EC50 F(ab)-2 (human CD11a [1]): 1 ratio

B6: murine MHM24 (antibody, V domains shown)
VH: EVQLQQPGAELMRPGASVKLSCKASGYSFTGHWMNWVRQRPGQGLEWIGMIHPSDSETRLNQKFKDKATLTVDKSSSSAYMQLSSPTSEDSAVYYCARGIYFYGTTYFDYWGQGTTLTVSS
VL: DVQITQSPSYLAASPGETISINCRASKTISKYLAWYQEKPGKTNKLLIYSGSTLQSGIPSRFSGSGSGTDFTLTISSLEPEDFAMYYCQQHNEYPLTFGTGTKLELKR
notes: Murine monoclonal antibody; also called muMHM24; murMHM24
- IC50, blocking of cell adhesion, Jurkat:HuK (human CD11a [6]): 0.09 nM
- fold reduction in binding against human CD11a (rhesus CD11a [7]): ~1000 fold
- Kd (human CD11a [8]): 0.16 nM
- Kd (human CD11a [9]): 0.13 nM
- Kd (human CD11a [10]): 0.15 nM

B7: chimeric MHM24 IgG1 (chIgG1) (antibody, V domains shown)
VH: EVQLQQPGAELMRPGASVKLSCKASGYSFTGHWMNWVRQRPGQGLEWIGMIHPSDSETRLNQKFKDKATLTVDKSSSSAYMQLSSPTSEDSAVYYCARGIYFYGTTYFDYWGQGTTLTVSS
VL: DVQITQSPSYLAASPGETISINCRASKTISKYLAWYQEKPGKTNKLLIYSGSTLQSGIPSRFSGSGSGTDFTLTISSLEPEDFAMYYCQQHNEYPLTFGTGTKLELKR
notes: Murine VL and VH fused to human constant light and heavy (IgG1) chains; also called chimeric IgG1; chlgG1
- EC50 (human CD11a [2]): 0.0052 mg/L
- EC50 F(ab)/EC50 F(ab)-2 (human CD11a [1]): 0.006 ratio
- IC50, blocking of cell adhesion, Jurkat:HuK (human CD11a [6]): 0.1 nM
